Data published in patent publication US20230125550A1 (ARCELLX, published 2023).
Substitutions are numbered along the chain they refer to.

B1: SEQ ID NO: 409 (designed binder)
chain: MGSWVEFHMRLDAIYERLDALGGSEAELAAFEKEIAAFESELQAYKGKGNPEVEWLRTAAANIRVELQAYRHN
notes: D domain, on phage
B2: SEQ ID NO: 411 (designed binder)
chain: B1 chain with V5N, H8V, M9I, D19L, W55Y, T58M, V65M
notes: D domain, on phage
B3: SEQ ID NO: 417 (designed binder)
chain: B1 chain with V5H, H8G, M9V, E16D, D19M, W55F, T58Q, V65S
notes: D domain, on phage
B4: SEQ ID NO: 424 (designed binder)
chain: B1 chain with H8Y, M9I, E16V, D19M, W55K, T58S, A59Y, V65Q
notes: D domain, on phage
B5: SEQ ID NO: 419 (designed binder)
chain: B1 chain with V5T, H8N, M9L, E16G, D19S, W55F, T58A
notes: D domain, on phage
B6: SEQ ID NO: 423 (designed binder)
chain: B1 chain with H8S, M9I, E16T, D19V, W55M, T58K, A59G, V65K
notes: D domain, on phage
B7: SEQ ID NO: 404 (designed binder)
chain: B1 chain with V5I, H8N, D19V, T58K, A59V, V65L
notes: D domain, on phage
B8: SEQ ID NO: 422 (designed binder)
chain: B1 chain with V5T, H8A, M9W, E16D, D19L, T58H, A59V, V65R
notes: D domain, on phage
B9: SEQ ID NO: 403 (designed binder)
chain: B1 chain with V5S, H8N, D19T, T58H, A59S, N62L, V65L
notes: D domain, on phage
B10: SEQ ID NO: 408 (designed binder)
chain: B1 chain with H8Y, M9T, E16G, T58Q, A59V, V65M
notes: D domain, on phage
B11: SEQ ID NO: 324 (designed binder)
chain: MGSWYEFVIRLEAIEDRLWALGGSEAELAAFEKEIAAFESELQAYKGKGNPEVEVLRWYAADIRHELQAYRHN
notes: D domain, on phage
B12: SEQ ID NO: 412 (designed binder)
chain: MGSWSEFYVRVDAIYARLSALGGSEAELAAFEKEIAAFESELQAYKGKGNPEVEKLRVWAANIRHELQAYRHN
notes: D domain, on phage
B13: SEQ ID NO: 420 (designed binder)
chain: B1 chain with H8N, M9W, E16D, D19V, T58V, A59S, N62K, V65G
notes: D domain, on phage
B14: SEQ ID NO: 407 (designed binder)
chain: B1 chain with V5T, H8Y, M9V, T58M, A59V, V65T
notes: D domain, on phage
B15: SEQ ID NO: 405 (designed binder)
chain: B1 chain with V5Y, M9H, D19L, T58S, A59S, V65K
notes: D domain, on phage
B16: SEQ ID NO: 325 (designed binder)
chain: B11 chain with Y5T, V8S, E15Y, W19V, W58T, D62N
notes: D domain, on phage
B17: SEQ ID NO: 410 (designed binder)
chain: B12 chain with S5Y, Y8A, V9I, V11L, A16E, S19H, K55Y, H65T
notes: D domain, on phage
B18: SEQ ID NO: 402 (designed binder)
chain: B1 chain with V5S, H8N, D19T, T58H, A59S, N62R, V65L
notes: D domain, on phage
B19: SEQ ID NO: 415 (designed binder)
chain: B1 chain with H8E, Y15V, E16G, D19Y, W55K, T58R, A59W, V65S
notes: D domain, on phage
B20: SEQ ID NO: 406 (designed binder)
chain: B1 chain with V5Y, H8A, M9K, D19V, T58S, A59S, V65E
notes: D domain, on phage
B21: SEQ ID NO: 421 (designed binder)
chain: B1 chain with V5N, H8A, M9W, E16S, D19A, T58V, V65Y
notes: D domain, on phage
B22: SEQ ID NO: 414 (designed binder)
chain: B1 chain with M9L, E16G, D19M, W55N, T58V, A59W, V65N
notes: D domain, on phage
B23: SEQ ID NO: 416 (designed binder)
chain: B1 chain with H8N, M9I, D19Y, W55K, T58H, A59W, N62S, V65R
notes: D domain, on phage
B24: SEQ ID NO: 418 (designed binder)
chain: B1 chain with V5T, H8N, M9L, E16D, D19M, T58A, A59S, N62A
notes: D domain, on phage
B25: SEQ ID NO: 326 (designed binder)
chain: B11 chain with Y5T, V8S, E15Y, W19V, W58T, D62F
notes: D domain, on phage
B26: SEQ ID NO: 413 (designed binder)
chain: B12 chain with Y8H, V11L, S19D, K55R, V58E, H65R
notes: D domain, on phage
B27: SEQ ID NO: 318 (designed binder)
chain: MGSWVEFWFRLEAIDSRLWALGGSEAELAAFEKEIAAFESELQAYKGKGNPEVEWLREEAAAIREDLQAYRHN
notes: D domain, on phage
B28: SEQ ID NO: 328 (designed binder)
chain: MGSWVEFHERLEAIEDRLMALGGSEAELAAFEKEIAAFESELQAYKGKGNPEVEYLREDAAFIRQLLQAYRHN
notes: D domain, on phage
B29: SEQ ID NO: 330 (designed binder)
chain: B28 chain with V5I, H8Y, E9D, E15Y, M19D, Y55W, Q65S, L66W
notes: D domain, on phage
B30: SEQ ID NO: 370 (designed binder)
chain: B11 chain with V8W, I9D, E12D, I14L, V55Y, W58D, Y59S, D62F, H65E
notes: D domain, on phage
B31: SEQ ID NO: 397 (designed binder)
chain: B27 chain with V5M, W8E, F9E, E12W, E58S, A62W, E65M, D66E
notes: D domain, on phage
B32: SEQ ID NO: 381 (designed binder)
chain: B27 chain with V5F, W8H, F9D, E12W, S16E, W55I, A62D, E65L
notes: D domain, on phage
B33: SEQ ID NO: 379 (designed binder)
chain: B27 chain with V5F, F9D, D15W, S16E, W19D, W55E, E58R, A62I
notes: D domain, on phage
B34: SEQ ID NO: 383 (designed binder)
chain: MGSWFEFQDRLWAIDNRLWALGGSEAELAAFEKEIAAFESELQAYKGKGNPEVEELRDHAAMIRWELQAYRHN
notes: D domain, on phage
B35: SEQ ID NO: 363 (designed binder)
chain: B1 chain with H8D, D12S, Y15W, D19I, T58E, A59D, N62E, V65E, E66F
notes: D domain, on phage
B36: SEQ ID NO: 380 (designed binder)
chain: B27 chain with V5F, W8E, F9D, D15Y, S16Q, W19D, E58D, A62W, E65S
notes: D domain, on phage
B37: SEQ ID NO: 319 (designed binder)
chain: B27 chain with F9Q, D15E, W55F, A62E, E65W, D66E
notes: D domain, on phage
B38: SEQ ID NO: 320 (designed binder)
chain: B27 chain with V5S, F9Q, D15E, S16D, E59N, A62M, E65D, D66E
notes: D domain, on phage
B39: SEQ ID NO: 367 (designed binder)
chain: B27 chain with W8Y, F9S, E12D, D15E, S16D, E58I, E59A, A62S
notes: D domain, on phage
B40: SEQ ID NO: 382 (designed binder)
chain: B34 chain with F5Y, Q8E, D58V, M62D, W65D, E66D
notes: D domain, on phage
B41: SEQ ID NO: 372 (designed binder)
chain: B34 chain with F5D, Q8V, D15E, N16E, D58I, H59Q, M62I, W65E, E66A
notes: D domain, on phage
B42: SEQ ID NO: 321 (designed binder)
chain: B27 chain with V5S, W8I, F9T, S16D, W55I, A62E, E65Q, D66H
notes: D domain, on phage
B43: SEQ ID NO: 332 (designed binder)
chain: B28 chain with E9D, M19L, Y55D, D59Y, F62G, Q65W, L66F
notes: D domain, on phage
B44: SEQ ID NO: 317 (designed binder)
chain: B34 chain with F5A, Q8E, D15E, N16D, E55Y, D58E, H59E, M62A, W65F
notes: D domain, on phage
B45: SEQ ID NO: 371 (designed binder)
chain: B27 chain with V5M, W8V, F9D, E12D, D15E, E58I, A62F, D66E
notes: D domain, on phage
B46: SEQ ID NO: 329 (designed binder)
chain: B28 chain with E9D, M19Y, Y55W, F62Y, Q65S, L66I
notes: D domain, on phage
B47: SEQ ID NO: 331 (designed binder)
chain: B28 chain with H8D, E9Q, E15Y, M19Y, Y55W, F62Q, Q65K, L66W
notes: D domain, on phage
B48: SEQ ID NO: 369 (designed binder)
chain: B34 chain with Q8D, D15E, E55V, H59N, M62W, W65E, E66I
notes: D domain, on phage
B49: SEQ ID NO: 322 (designed binder)
chain: B27 chain with V5Y, W8E, F9T, D15Y, S16D, W55L, E58V, A62E
notes: D domain, on phage
B50: SEQ ID NO: 316 (designed binder)
chain: B34 chain with F5T, Q8H, W12E, N16D, E55Y, D58E, H59E, M62Q
notes: D domain, on phage
B51: SEQ ID NO: 364 (designed binder)
chain: B1 chain with H8D, M9Q, D19Y, T58D, A59E, N62E, V65E, E66H
notes: D domain, on phage
B52: SEQ ID NO: 368 (designed binder)
chain: B11 chain with V8Y, I9E, E12D, D16E, W58D, Y59W, D62W, H65E, E66D
notes: D domain, on phage
B53: SEQ ID NO: 323 (designed binder)
chain: B11 chain with Y5T, V8Y, I9Y, V55F, W58V, Y59E, D62N, H65D, E66M
notes: D domain, on phage

The binders below were run against T1, recombinant human CD123-Fc (human, UniProt P26951 19-305) (assay: phage ELISA, captured CD123-Fc).
T1 construct: not shown: Fc part of CD123-Fc
T1 sequence: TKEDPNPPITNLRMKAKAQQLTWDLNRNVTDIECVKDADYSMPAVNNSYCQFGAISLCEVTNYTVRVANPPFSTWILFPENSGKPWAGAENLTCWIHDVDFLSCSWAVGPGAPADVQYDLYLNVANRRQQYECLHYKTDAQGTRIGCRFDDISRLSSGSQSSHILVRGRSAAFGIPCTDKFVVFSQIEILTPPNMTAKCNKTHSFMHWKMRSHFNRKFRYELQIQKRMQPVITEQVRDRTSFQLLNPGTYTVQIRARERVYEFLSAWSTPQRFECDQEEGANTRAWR
Protocol: Individual colonies containing phagemid from BCMA panning output were picked and phage were rescued in 96-well format using VCSM13 helper phage following standard protocols. To assay target binding by ELISA, 96-well plates were coated with 1.3 microg/ml goat anti-human IgG1-Fc antibody followed by incubation with 5 nM of recombinant human target (BCMA-Fc, CD123-Fc, AFP, or AFP123) or IgG1-Fc. 50 microl of rescued phage diluted 5× in ELISA blocking buffer was then added to each well. Binding was detected using an HRP-conjugated anti-M13 antibody and the ELISA ratio for each sequence is reported as the absorbance at 450 nm for target (i.e., BCMA-Fc, CD123-Fc, AFP, or AFP123) divided by that for IgG1-Fc averaged across all screened wells containing that clone.

| Binder | ELISA_avg |
| --- | --- |
| B1 | 9.1 ratio A450 target/IgG1-Fc |
| B2 | 16.6 ratio A450 target/IgG1-Fc |
| B3 | 15.6 ratio A450 target/IgG1-Fc |
| B4 | 16.1 ratio A450 target/IgG1-Fc |
| B5 | 19.3 ratio A450 target/IgG1-Fc |
| B6 | 15.1 ratio A450 target/IgG1-Fc |
| B7 | 11.4 ratio A450 target/IgG1-Fc |
| B8 | 16.1 ratio A450 target/IgG1-Fc |
| B9 | 11.4 ratio A450 target/IgG1-Fc |
| B10 | 14.4 ratio A450 target/IgG1-Fc |
| B11 | 6.4 ratio A450 target/IgG1-Fc |
| B12 | 14.7 ratio A450 target/IgG1-Fc |
| B13 | 9.3 ratio A450 target/IgG1-Fc |
| B14 | 16 ratio A450 target/IgG1-Fc |
| B15 | 11.9 ratio A450 target/IgG1-Fc |
| B16 | 11.9 ratio A450 target/IgG1-Fc |
| B17 | 25.5 ratio A450 target/IgG1-Fc |
| B18 | 13.7 ratio A450 target/IgG1-Fc |
| B19 | 25.3 ratio A450 target/IgG1-Fc |
| B20 | 15.3 ratio A450 target/IgG1-Fc |
| B21 | 17.7 ratio A450 target/IgG1-Fc |
| B22 | 17.5 ratio A450 target/IgG1-Fc |
| B23 | 13.4 ratio A450 target/IgG1-Fc |
| B24 | 14.4 ratio A450 target/IgG1-Fc |
| B25 | 10.2 ratio A450 target/IgG1-Fc |
| B26 | 14.4 ratio A450 target/IgG1-Fc |
| B27 | 3.2 ratio A450 target/IgG1-Fc |

| Binder | ELISA_avg |
| --- | --- |
| B28 | 3.7 ratio A450 target/IgG1-Fc |
| B29 | 7.5 ratio A450 target/IgG1-Fc |
| B30 | 9.7 ratio A450 target/IgG1-Fc |
| B31 | 3.2 ratio A450 target/IgG1-Fc |
| B32 | 3.5 ratio A450 target/IgG1-Fc |
| B33 | 10.3 ratio A450 target/IgG1-Fc |
| B34 | 3.2 ratio A450 target/IgG1-Fc |
| B35 | 3.3 ratio A450 target/IgG1-Fc |
| B36 | 5.5 ratio A450 target/IgG1-Fc |
| B37 | 7.7 ratio A450 target/IgG1-Fc |
| B38 | 4.7 ratio A450 target/IgG1-Fc |
| B39 | 9.4 ratio A450 target/IgG1-Fc |
| B40 | 4.9 ratio A450 target/IgG1-Fc |
| B41 | 6 ratio A450 target/IgG1-Fc |
| B42 | 3.3 ratio A450 target/IgG1-Fc |
| B43 | 3.3 ratio A450 target/IgG1-Fc |
| B44 | 6.2 ratio A450 target/IgG1-Fc |
| B45 | 5.8 ratio A450 target/IgG1-Fc |
| B46 | 4.6 ratio A450 target/IgG1-Fc |
| B47 | 5.1 ratio A450 target/IgG1-Fc |
| B48 | 4.2 ratio A450 target/IgG1-Fc |
| B49 | 3.2 ratio A450 target/IgG1-Fc |
| B50 | 5.8 ratio A450 target/IgG1-Fc |
| B51 | 10.5 ratio A450 target/IgG1-Fc |
| B52 | 8.4 ratio A450 target/IgG1-Fc |
| B53 | 7.5 ratio A450 target/IgG1-Fc |
